Source: the Immune Epitope Database (IEDB)

What was measured:
[1] = biological target: HLA-A*03:01; assay: IEDB peptide-MHC binding, purified MHC/competitive/fluorescence; filed as Kd, often an IC50 or EC50 that approximates it; ≥ and ≤ were set here for values at or beyond the usual limits of such assays; conditions: source organism: Salmonella enterica subsp. enterica serovar Typhi
[2] = biological target: HLA-B*58:01; assay: as above
[3] = biological target: HLA-B*15:01; assay: as above
[4] = biological target: HLA-A*01:01; assay: as above
[5] = biological target: HLA-B*44:02; assay: IEDB peptide-MHC binding, purified MHC/direct/fluorescence; filed as Kd, often an IC50 or EC50 that approximates it; ≥ and ≤ were set here for values at or beyond the usual limits of such assays
[6] = biological target: HLA-A*11:01; assay: as above
[7] = biological target: HLA-B*46:01; assay: as above
[8] = biological target: HLA-A*03:01; assay: as above
[9] = biological target: HLA-A*26:01; assay: as above; conditions: source organism: Rickettsia felis URRWXCal2
[10] = biological target: HLA-B*07:02; assay: as above
[11] = biological target: HLA-B*58:01; assay: as above
[12] = biological target: HLA-B*08:01; assay: as above; conditions: source organism: Rickettsia felis URRWXCal2
[13] = biological target: HLA-B*15:01; assay: as above
[14] = biological target: HLA-B*27:05; assay: as above
[15] = biological target: HLA-A*31:01; assay: as above
[16] = biological target: HLA-A*24:02; assay: as above
[17] = biological target: HLA-B*40:01; assay: as above
[18] = biological target: HLA-A*02:01; assay: as above
[19] = biological target: HLA-A*69:01; assay: as above
[20] = biological target: HLA-B*18:01; assay: as above
[21] = biological target: HLA-A*01:01; assay: as above
[22] = biological target: HLA-A*23:01; assay: as above
[23] = biological target: HLA-A*24:03; assay: as above
[24] = biological target: HLA-A*02:11; assay: as above
[25] = biological target: HLA-A*02:12; assay: as above
[26] = biological target: HLA-A*68:02; assay: as above
[27] = biological target: HLA-A*02:03; assay: as above
[28] = biological target: HLA-A*02:16; assay: as above
[29] = biological target: HLA-A*29:02; assay: as above
[30] = biological target: HLA-A*02:19; assay: as above
[31] = biological target: HLA-B*39:01; assay: IEDB peptide-MHC binding, purified MHC/competitive/fluorescence; filed as Kd, often an IC50 or EC50 that approximates it; ≥ and ≤ were set here for values at or beyond the usual limits of such assays
[32] = biological target: HLA-B*57:01; assay: as above
[33] = biological target: HLA-B*46:01; assay: as above
[34] = biological target: HLA-A*26:01; assay: as above
[35] = biological target: HLA-B*15:17; assay: as above
[36] = biological target: HLA-A*02:01; assay: as above
[37] = biological target: HLA-A*69:01; assay: as above
[38] = biological target: HLA-B*18:01; assay: as above
[39] = biological target: HLA-B*51:01; assay: as above
[40] = biological target: HLA-B*57:01; assay: IEDB peptide-MHC binding, purified MHC/direct/fluorescence; filed as Kd, often an IC50 or EC50 that approximates it; ≥ and ≤ were set here for values at or beyond the usual limits of such assays; conditions: source organism: West Nile virus
[41] = biological target: HLA-A*80:01; assay: as above; conditions: source organism: West Nile virus
[42] = biological target: HLA-B*48:01; assay: as above; conditions: source organism: West Nile virus
[43] = biological target: HLA-B*27:03; assay: IEDB peptide-MHC binding, purified MHC/competitive/fluorescence; filed as Kd, often an IC50 or EC50 that approximates it; ≥ and ≤ were set here for values at or beyond the usual limits of such assays; conditions: source organism: Bacillus anthracis str. A0488
[44] = source organism: Salmonella enterica subsp. enterica serovar Typhi
[45] = source organism: Rickettsia australis
[46] = source organism: Burkholderia mallei ATCC 23344
[47] = source organism: Salmonella enterica subsp. enterica serovar Paratyphi B str. SPB7
[48] = source organism: Bacillus anthracis str. Sterne
[49] = source organism: Bacillus anthracis str. A2012
[50] = source organism: West Nile virus
[51] = source organism: Bacillus cereus 03BB108
[52] = source organism: Bacillus anthracis str. A0488
[53] = source organism: Giardia lamblia ATCC 50803

ASIADILTY
Kd [1]: ≥ 20 µM | Kd [2, 44]: 0.0207 µM | Kd [3, 44]: 0.425 µM | Kd [4, 44]: 0.764 µM

ATYGTAVNK
Kd [5, 45]: ≥ 20 µM | Kd [6, 45]: 0.0296 µM | Kd [7, 45]: ≥ 20 µM | Kd [8, 45]: 0.0833 µM | Kd [9]: ≥ 20 µM | Kd [10, 45]: ≥ 20 µM | Kd [11, 45]: ≥ 20 µM | Kd [12]: ≥ 20 µM | Kd [13, 45]: ≥ 20 µM | Kd [14, 45]: ≥ 20 µM | Kd [15, 45]: 0.0371 µM | Kd [16, 45]: ≥ 20 µM | Kd [17, 45]: ≥ 20 µM | Kd [18, 45]: ≥ 20 µM | Kd [19, 45]: ≥ 20 µM | Kd [20, 45]: ≥ 20 µM | Kd [21, 45]: ≥ 20 µM

CYRGVRHRK
Kd [22, 46]: 0.41 µM | Kd [23, 46]: 1.39 µM

FSDLLSMAW
Kd [2, 47]: 0.0024 µM | Kd [3, 47]: ≥ 20 µM | Kd [4, 47]: 0.0014 µM

IFQKISFFW
Kd ([16]; source organism: Cryptosporidium parvum Iowa II): 0.017 µM

KKNHWFILK
Kd [22, 48]: ≥ 20 µM | Kd [24, 48]: ≥ 20 µM | Kd [6, 48]: 0.254 µM | Kd [25, 48]: ≥ 20 µM | Kd [26, 48]: ≥ 20 µM | Kd [27, 48]: ≥ 20 µM | Kd [28, 48]: ≥ 20 µM | Kd [29, 48]: ≥ 20 µM | Kd [30, 48]: ≥ 20 µM | Kd [23, 48]: ≥ 20 µM | Kd [31, 49]: ≥ 20 µM | Kd [32, 49]: ≥ 20 µM | Kd [33, 49]: ≥ 20 µM | Kd [34, 49]: ≥ 20 µM | Kd [35, 49]: ≥ 20 µM | Kd [36, 49]: ≥ 20 µM | Kd [37, 49]: ≥ 20 µM | Kd [38, 49]: ≥ 20 µM | Kd [39, 49]: ≥ 20 µM

MLRKKQITV
Kd [5, 50]: ≥ 20 µM | Kd [40]: ≥ 20 µM | Kd [7, 50]: ≥ 20 µM | Kd [11, 50]: ≥ 20 µM | Kd [41]: ≥ 20 µM | Kd [29, 50]: ≥ 20 µM | Kd [14, 50]: ≥ 20 µM | Kd [42]: ≥ 20 µM | Kd [15, 50]: ≥ 20 µM | Kd [17, 50]: ≥ 20 µM | Kd [19, 50]: ≥ 20 µM | Kd [20, 50]: ≥ 20 µM | Kd [21, 50]: ≥ 20 µM

SYMLQGLRK
Kd [22, 51]: ≥ 20 µM | Kd [24, 51]: ≥ 20 µM | Kd [6, 51]: 0.228 µM | Kd [25, 51]: ≥ 20 µM | Kd [8, 51]: ≥ 20 µM | Kd [26, 51]: ≥ 20 µM | Kd [27, 51]: ≥ 20 µM | Kd [28, 51]: ≥ 20 µM | Kd [30, 51]: ≥ 20 µM | Kd [23, 51]: ≥ 20 µM | Kd [31, 52]: ≥ 20 µM | Kd [32, 52]: ≥ 20 µM | Kd [33, 52]: ≥ 20 µM | Kd [34, 52]: ≥ 20 µM | Kd [35, 52]: ≥ 20 µM | Kd [36, 52]: ≥ 20 µM | Kd [37, 52]: ≥ 20 µM | Kd [38, 52]: ≥ 20 µM | Kd [39, 52]: ≥ 20 µM | Kd [43]: ≥ 20 µM

WLKEKHEEL
Kd [5, 53]: ≥ 20 µM | Kd [6, 53]: ≥ 20 µM | Kd [7, 53]: ≥ 20 µM | Kd [8, 53]: ≥ 20 µM | Kd [10, 53]: ≥ 20 µM | Kd [11, 53]: ≥ 20 µM | Kd [13, 53]: 0.498 µM | Kd [14, 53]: ≥ 20 µM | Kd [16, 53]: ≥ 20 µM | Kd [17, 53]: ≥ 20 µM | Kd [18, 53]: 0.304 µM | Kd [20, 53]: ≥ 20 µM | Kd [21, 53]: ≥ 20 µM
